Assay: yeast display, Sf9 membrane polyspecificity reagent, FACS + sequencing; frameworks hold sequencing errors
How it was run: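 Polyreactivity labels are assigned by the sorting gate from which each nanobody was recovered. The gates were low and high (top ~1%), set on anti-HA fluorescence for expression and streptavidin fluorescence for reagent binding. Before sorting, galactose-induced (36–48 hours) yeast display cells were stained for 1 hour at 4 °C with 10% biotinylated, detergent-solubilized Sf9 membrane reagent.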

Row | Sequence | polyreactivity (PSR sort gate)
1 | QVQLVESGGGLVQAGGSLRLSCAASGGIFYPNVMGWYRQAPGKEREFVAAITSSSGSTYADSVKGRFTISRDNAKNTVYLQMNSLKPEDTAVYYCAAVENWWGIWVRYDYWGQGTQVTVSS | low polyreactivity
2 | QVQLVESGGGLVQAGGSLRLSCAASGGIFYSYAMGWYRQAPGKERELVAAITWIGGSTYYADSVKGRFTISRDNAKNTVYLQMNSLKPEDTAVYYCAAEILWGGYDYWGQGTQVTVSS | low polyreactivity
3 | QVQLVESGGGLVQAGGSLRLSCAASGGIFYYYAMGWYRQAPGKERELVAAISWSGGSTYYADSVKGRFTISRDNAKNTVYLQMNSLKPEDPAVYYCAPYSDFHYAQLEYDYWGQGTQVTVSS | low polyreactivity
4 | QVQLVESGGGLVQAGGSLRLSCAASGGIIDWYVMGWYRQAPGKERELVAAISYNGGATYYADSVKGRFTISRDNAKNTVYLQMNSLKPEDTAVYYCAAGVTWPYRYVWYVYWGQGTQVTVSS | low polyreactivity
5 | QVQLVESGGGLVQAGGSLRLSCAASGGIIFYYAMGWYRQAPGKERALVAAISYSGGSTYYADSVKGRFTISRDNAKNTVYLQMNSLKPEDTAVYYCAARTHYFPWPWYVWDYDSWGQGTQVTVSS | low polyreactivity
6 | QVQLVESGGGLVQAGGSLRLSCAASGGILGVNAMGWYRQAPGKERELVAAISGRGGRTYYADSVKGRSTISRDNAKNTVYLQLNSLKPEDTAVYYCAVEFYSVARFPLWSYYWGQGTQVTVSS | high polyreactivity
7 | QVQLVESGGGLVQAGGSLRLSCAASGGILGWSAMGWSRQAPGKERELVAAIRDSGGSTYYADSVKGRFTIARDNAKKTVYLQMNSLKPEDTAVYYCAAYYIASRSTRYYYWGQGTQVTVSS | high polyreactivity
8 | QVQLVESGGGLVQAGGSLRLSCAASGGILNYYAMGWYRQAPGKERELVAAITGIGGSTSYADSVKGRFTISRDNAKNTVYLQMNSLKPEDTAVYYCAAEATSSYYVPDYDYWGQGTQVTVSS | low polyreactivity
9 | QVQLVESGGGLVQAGGSLRLSCAASGGILVFYAMGWYRQAPGKERELVAAITKRGTSTYYADSVKGRFTISRDIEKNTVYLQMNSLKPEDTAVYYCAAESIPYYRYDYWGQGSQVTVSS | low polyreactivity
10 | QVQLVESGGGLVQAGGSLRLSCAASGGILYYYAMGWYRQAPGKEREMVAAISSGGRTNYADSVKGRFTISRDNAMNTVYLQMNSLNPEDTAVYYCAARGATGFRRYGVTHYYYWGQGTQVNVSS | high polyreactivity
11 | QVQLVESGGGLVQAGGSLRLSCAASGGISTAYTMGWYRQEPGKERELVADITRSGGRTYYADSVKGRFTISRDTAKNNVYLQMNSLKPEDTAVYYCARTYYYRFNYWGQGTQVTVSS | high polyreactivity
12 | QVQLVESGGGLVQAGGSLRLSCAASGGIVSVYAMGWYRQAPGQERELVASITVSGGSTSYADSVKGRFTISRDNAKNTVYLQMNSLIPEDTAVYYCNTDFGQAHTLSWYEDMDYWGQGTQVTVSS | low polyreactivity
13 | QVQLVESGGGLVQAGGSLRLSCAASGGLFIGYAMGWYRQAPGKERELVAAISYSGGSTYYADSVKGRFTISRDNAKNTVYLQMNSLKPEDTAVYYCAAQVDRKYRWFNSWGQGTQVTVSS | high polyreactivity
14 | QVQLVESGGGLVQAGGSLRLSCAASGGMGWYRQAPGKERELVATISSVGSTNYADSVKGRFTISRDNAKNTVYLQMNSLKPEDTAVYYCAADYGSDYTKGDYWGQGTQVTVSS | low polyreactivity
15 | QVQLVESGGGLVQAGGSLRLSCAASGGSFYPYAMGWSRQAPGKERELLAAISWSGDITYYADSVKGRFTISRDNANNTVYLQMNSLKPEDTAVYYCAAGRVVDKDPSYFREGDYWGQGTQVTVSS | low polyreactivity
16 | QVQLVESGGGLVQAGGSLRLSCAASGGTFAGYAMGWYRQAPGKERELVAAISWSSGRTYYADSVKGRFTISRDIAKNSVYLQMNSLKPEETAVYDCTVLRYRGYDYWGQGTQVTVSS | high polyreactivity
17 | QVQLVESGGGLVQAGGSLRLSCAASGGTFAIYAMGWYRQAPGKYRELVASINSGGSTNNADSVKGRFTISRDNAKNTVYFQLNLLKPEDTAVYYCNRGYLGYFRYDYWGQGTQVTVSS | high polyreactivity
18 | QVQLVESGGGLVQAGGSLRLSCAASGGTFATYAMGWYRQAPGKERELVAAISWSGGSTYYAVSVKGRFTISRDNAKNTVYLQMNSLKPEDTAVYYCAAASRAPSGLYYYWGQGTQVTVSS | high polyreactivity
19 | QVQLVESGGGLVQAGGSLRLSCAASGGTFAVNVMGWYRQAPGKERELVAAITSNGGSTYYADSVNGRFTISRDNAKNTVYLQMNSLKPEDTAVYYCAAEGSGWYTGHYYYWGQGTQVTVSS | low polyreactivity
20 | QVQLVESGGGLVQAGGSLRLSCAASGGTFAVYAMGWYRQAPGKERELVAAIDSGGRTNYADSVKGRFTISRDNAKNTVYLQMNSLKPEDTAVYYCAADGGGQYVRYDYWGQGTQVTVSS | high polyreactivity
21 | QVQLVESGGGLVQAGGSLRLSCAASGGTFAWNAMGWYRQATGKERELVAAISFDGTSTYYADSVKGRFTISRDNAKNTVYLQMNSLKPEDTAVYYCNRVYLGYFRYDYWGQGTQVTVSS | high polyreactivity

Row | Sequence | polyreactivity (PSR sort gate)
22 | QVQLVESGGGLVQAGGSLRLSCAASGGTFAYKAMGWYRQAHGKERQLVAAITSSGGSTYYADSVKGRFTISRDNAKNTVYLQMNRLKPEDTAVYYCNRLRNRSLGGYYYWGQGTQVTVSS | high polyreactivity
23 | QVQLVESGGGLVQAGGSLRLSCAASGGTFDINDMGWYRQAPGKEREFVAAIDWSGGNTYYADSVKGRFIISRDNAKNTVYLQMNSLKPEDTAVYYCNARRKRSYDYWGQGTQVTVSS | low polyreactivity
24 | QVQLVESGGGLVQAGGSLRLSCAASGGTFDWNAMGWYRQAPGKERELVASISSSGGSTYYADSVNGRFTISRDNAKNTVYLQMNSLKPEDTAVYYCNAERKIIAYLWWYDYWGQGTQVTVSS | low polyreactivity
25 | QVQLVESGGGLVQAGGSLRLSCAASGGTFFKNAMGWYRQAPGKERELVAVIDTISTSTYYADSVKGRFTISRDNAKNTVYLQMNSLKPEDTAVYYCAAEYGPGLTEGLYYYWGQGTQVTVSS | high polyreactivity
26 | QVQLVESGGGLVQAGGSLRLSCAASGGTFGAYAMGWYRQAPGKERELVAAINVGGGSTYYADSVKGRFTISRDNAKNTVDLQMNSLKPEATAGYYCAKDLYDGYWRGDYWGQGTQVTVSS | low polyreactivity
27 | QVQLVESGGGLVQAGGSLRLSCAASGGTFGTNAMGWYRQAPGKEREFVAAISRSGGSTNYADSVKGRFTISRDNAKNTVYLEMNILKPEDTAVYFCATRVIVVPRGGGYYSWGQGTQVTVSS | high polyreactivity
28 | QVQLVESGGGLVQAGGSLRLSCAASGGTFGTNTMGWYRQAPGKERELVAAISRSGGSTYYADSVKGRFTISRDNAKNTVYLQMNCLKPEDTAVYYCNAVPRKYTDEFDYWGQGTQVTVSS | high polyreactivity
29 | QVQLVESGGGLVQAGGSLRLSCAASGGTFIYYAMGWYSQAPGKERELVAAISSGGSTYYADSVKGRFTISRDNAKNTVYLQMNSLKPEDTAVYYCAKRRAVQIVDLEYWRQGTQVTVSS | low polyreactivity
30 | QVQLVESGGGLVQAGGSLRLSCAASGGTFKRYAMGWYRQAPGKERELVAAISGRGGSTYYADSVKGRFTISRDNAKTTVYLQMNSLKPEDTAVYYCNAGGSPQFYGRSKGDYWGQATQVTVSS | high polyreactivity
31 | QVQLVESGGGLVQAGGSLRLSCAASGGTFNRNAMGWYRQAPGKERELVAAISSSGGRTYYADSVKGRFTISRDNAKNTVYLQMNSLKPEDTAVYYCAAGRKGHGGAYDSWAQGTQVTVSS | high polyreactivity
32 | QVQLVESGGGLVQAGGSLRLSCAASGGTFNRYAMGWYRQAPGKERELVAAISWSGGSTYYADSVKGRFTISRDTAKNTVYLQMNSLKPEDTAVYYCNARNWYYEGDYWGQGTQVTVSS | high polyreactivity
33 | QVQLVESGGGLVQAGGSLRLSCAASGGTFPAYAMGWYRQAPGKERELVASISDDDSTYYADSVKGRFTISRDNAKNTVYLQMNSLKPEDTAVYYCNVEYWYYPSVEYYWTAYDYWGQGTQVTVSS | low polyreactivity
34 | QVQLVESGGGLVQAGGSLRLSCAASGGTFPRYAMGWYRQAPGKERELVAAINQSGGRTYYADSVKGRFTISRDNAKNTVYLQMNSLKPEDTADYYCAAGYGWRTSYLSYGYWGQGTQVTVSS | high polyreactivity
35 | QVQLVESGGGLVQAGGSLRLSCAASGGTFPRYAMGWYRQAPGKERELVAAITRSGGRTYYADSVKGRFTISRDNAKNTVYLQMNSLKPEDTAVYYCAADAPDYRMDYWGQGTQVTVSS | high polyreactivity
36 | QVQLVESGGGLVQAGGSLRLSCAASGGTFQSNAKGWYRQAPGKERELVASITSRGSSTYYADSVKGRFTISRDNAKNTVYLQMNSLKPEDTAVFYCAKGRSLQMYYKGGIKGGYWGQGTQVTVSS | low polyreactivity
37 | QVQLVESGGGLVQAGGSLRLSCAASGGTFRKNAMGWYRQAPGKERELVAAITKSGGSTYYADSVKGRFTISRDNAKNTVYLQMNSLKPEDTAVYYCNTYPGSTQPPYDYWGQGTQVTVSS | low polyreactivity
38 | QVQLVESGGGLVQAGGSLRLSCAASGGTFRRYAMGWYRQAPGKEREIVAAITISGGNTYYADSVKGRFTISRDNAKNTVYLQMNSLNPEDTAVYYCAADYAYNKYLSVEYWGQGTQVTVSS | low polyreactivity
39 | QVQLVESGGGLVQAGGSLRLSCAASGGTFRRYTMGWYRQAPGKERELVAVISRSGGSTYYADSVKGRFTISRDNAKNTVYLQMNSLKPEDTAVYYCAVVYYNGYDWGQGTQVTVSS | high polyreactivity
40 | QVQLVESGGGLVQAGGSLRLSCAASGGTFRSNAMGWYRQAPGKERELVAAITRTGRTNYADSVKGRFTISRDNAKNTVYLQMNSLKPEDTAVYYCNAARYVREYDYWGQGTQVTVSS | high polyreactivity
41 | QVQLVESGGGLVQAGGSLRLSCAASGGTFRVYAMGWYRQAPGKERELVAAISSGGSTNYADSVKGRFTISRDNAKNTVYLQMNSLKPEDTAVYYCNAKYRYRFARSPIYYYWGQGTQVTVSS | low polyreactivity
